# Numbered stars: 1 amine (or outer) side, 2 acyl side, 3 side chain; on linkers, the order of the positions; unused ones are H or OH. Square brackets hold non-standard residues; d marks the D form. Ends that are not written are not given here. Pqa = 4-oxo-6-(1-piperazinyl)-3(4H)-quinazoline-acetic acid, O=C(Cn1cnc2ccc(N3CCN([*:1])CC3)cc2c1=O)[*:2]; NMeR = CN[C@@H](CCCNC(=N)N)C(=O)O
# Key:
# NPY5R = biological target: T1, NPY5R (Homo sapiens, UniProt Q15761); assay: effect on Y2Receptor family: NPY5R; assay type: cell-based
# T1 sequence (Q15761 1-445): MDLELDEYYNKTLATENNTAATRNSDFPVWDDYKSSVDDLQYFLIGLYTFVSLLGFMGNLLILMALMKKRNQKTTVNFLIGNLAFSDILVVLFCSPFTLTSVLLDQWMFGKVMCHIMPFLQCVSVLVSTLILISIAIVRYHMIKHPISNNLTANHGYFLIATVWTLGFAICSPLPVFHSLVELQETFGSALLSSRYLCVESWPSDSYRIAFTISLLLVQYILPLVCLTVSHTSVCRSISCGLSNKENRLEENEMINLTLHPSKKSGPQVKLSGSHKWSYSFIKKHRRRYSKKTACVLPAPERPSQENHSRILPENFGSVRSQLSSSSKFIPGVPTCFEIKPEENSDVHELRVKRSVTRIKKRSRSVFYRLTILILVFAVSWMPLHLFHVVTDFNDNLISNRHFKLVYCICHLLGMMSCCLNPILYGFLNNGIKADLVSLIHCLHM
# NPY1R = biological target: T2, NPY1R (Homo sapiens, UniProt P25929); assay: effect on Y2Receptor family: NPY1R; assay type: cell-based
# T2 sequence (P25929 1-384): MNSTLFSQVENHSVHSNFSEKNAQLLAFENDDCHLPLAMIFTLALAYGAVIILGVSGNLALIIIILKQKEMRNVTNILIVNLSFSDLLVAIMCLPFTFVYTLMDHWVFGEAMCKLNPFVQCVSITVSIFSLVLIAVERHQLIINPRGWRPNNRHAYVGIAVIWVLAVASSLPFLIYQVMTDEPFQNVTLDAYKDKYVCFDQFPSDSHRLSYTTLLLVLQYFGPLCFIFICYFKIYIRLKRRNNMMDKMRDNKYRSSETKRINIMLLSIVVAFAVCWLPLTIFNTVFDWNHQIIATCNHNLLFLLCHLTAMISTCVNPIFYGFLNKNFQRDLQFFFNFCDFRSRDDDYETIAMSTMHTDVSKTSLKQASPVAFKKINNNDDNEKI
# NPY2R = biological target: T3, NPY2R (Homo sapiens, UniProt P49146); assay: effect on Y2Receptor family: NPY2R; assay type: cell-based
# T3 sequence (P49146 1-381): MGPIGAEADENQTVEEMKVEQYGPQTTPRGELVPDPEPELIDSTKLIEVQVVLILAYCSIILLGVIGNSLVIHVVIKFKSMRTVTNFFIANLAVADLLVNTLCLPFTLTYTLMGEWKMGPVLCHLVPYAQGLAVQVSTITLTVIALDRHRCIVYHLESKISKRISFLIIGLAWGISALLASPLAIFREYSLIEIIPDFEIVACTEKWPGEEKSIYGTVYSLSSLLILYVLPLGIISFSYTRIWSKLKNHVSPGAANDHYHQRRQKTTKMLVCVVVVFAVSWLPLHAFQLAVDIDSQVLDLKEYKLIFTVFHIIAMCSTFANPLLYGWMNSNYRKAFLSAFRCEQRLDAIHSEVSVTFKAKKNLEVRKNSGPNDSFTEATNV
# NPY4R = NPY4R (Homo sapiens, UniProt P50391); assay: effect on Y2Receptor family: NPY4R; assay type: cell-based
# [1] = Dig-peptide serum kinetic (Western blot of digoxigenylated PYY in serum); assay type: in vivo, mice (strain NRMI)
# Protocol: Serum samples were stored at −80° C.
# The determination of the amount of digoxigenylated peptide in the serum at the given time points was difficult compared to the detection of Dig-Cy5 as no direct means to detect the polypeptide in serum samples was available. Therefore, a Western-Blot related assay to detect digoxigenylated peptide in serum was established. In a first step, the serum samples were separated on reducing SDS-PAGE. Because sample preparation included exposure of the serum to high concentrations of SDS and reducing agents, complexed Dig-polypeptide conjugates can become released from the (completely denatured/unfolded) anti-digoxigenin antibody, whereas covalently conjugates remained bound. To mediate the release of the polypeptide from the non-covalent antibody complex and separate the individual components by SDS-PAGE, 2 μl of each serum sample was diluted in 18 μl 20 mM histidine/140 mM NaCl pH 6.0, mixed with 6.7 μl of 4×LDS sample buffer and 3 μl of 10× sample reducing agent (NuPAGE, Invitrogen) for 5 min at 95° C. As a control, 2 μl of serum of an untreated mouse of the same strain was used. Samples were applied to a 4-12% Bis-Tris Gel (NuPAGE, Invitrogen) which was run at 200 V/120 mA for 20 minutes using 1×MES (Invitrogen) as a running buffer. Subsequently, separated polypeptides were blotted onto a PVDF membrane (0.22 μm pore size, Invitrogen) using the XCell Sure Lock® Mini-Cell system (Invitrogen) for 40 min at 25 V/130 mA. Membranes were blocked in 1% skim milk in 1×PBS+1% Tween20 (PBST) for 1 h at RT. Digoxigenylated polypeptides were subsequently detected on the membrane with an anti-digoxigenin antibody. For that, anti-digoxigenin antibody was applied to the membranes in a concentration of 13 μg/ml in 10 ml of 1% skim milk/PBST for 2 h at RT. Membranes were washed for 3×5 min in 1×PBST. Anti-mouse IgG Fab-fragments coupled to POD from the LumiLight^PLUS Western Blotting Kit (Roche) was applied in a 1:25 dilution in 10 ml of 1% skim milk/PBST for 1 h at RT. […] Chemiluminescence was detected with the LumiImager F1 (Roche) with an exposure time of 20 min.
# [2] = biological target: anti-helicar motif amino acid sequence antibody; assay: binding [Kd] of PYY peptides by anti-helicar antibody; settings: PYY peptide bound by anti-helicar antibody
# Chain of NPY4R (P50391 whole entry, species assumed): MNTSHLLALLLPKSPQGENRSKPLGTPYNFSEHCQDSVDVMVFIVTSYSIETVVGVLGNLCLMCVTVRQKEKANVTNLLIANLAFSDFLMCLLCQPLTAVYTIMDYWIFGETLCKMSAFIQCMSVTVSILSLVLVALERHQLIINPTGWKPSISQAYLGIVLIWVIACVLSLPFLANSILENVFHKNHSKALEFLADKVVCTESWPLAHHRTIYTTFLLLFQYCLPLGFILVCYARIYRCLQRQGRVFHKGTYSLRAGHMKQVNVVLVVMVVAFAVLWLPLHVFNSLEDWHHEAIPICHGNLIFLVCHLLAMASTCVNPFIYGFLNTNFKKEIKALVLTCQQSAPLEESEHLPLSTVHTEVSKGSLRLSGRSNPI
NPY5R (NPY5R),NPY1R (NPY1R),NPY2R (NPY2R) [nM],NPY4R (NPY4R),Kd [2] [µM],Substance,digoxigenylated polypeptide signal in serum ([1]; 5 min after administration),digoxigenylated polypeptide signal in serum ([1]; later time points up to 24 hrs.),"half-life in the serum ([1]; mouse, in vivo)"
inactive,inactive,1.0,inactive,,Ac-Ile-Lys-Pqa-Arg-His-Tyr-Leu-Asn-Trp-Val-Thr-Arg-Gln-(NMe)-Arg-Try-NH2 * 4 HOAc (Ac-IK[Pqa]RHYLNWVTRQ[NMeR]Y-NH2; also: 4 HOAc salt) [reference compound],,,
,,,,,DIG-PYY: digoxigenylated PYY polypeptide,only in trace amounts,no defined polypeptide band was detectable,very short half-life
inactive,,6.38,inactive,0.012,IKPEAPGEDASPEAHLANEVARLHYLNLVTRQRY-NH2 [PYY_helicar],,,
